One protein from patent US6689567 (UNIVERSITY OF GUELPH, dated 2004) can be followed below.

The series concerns the molecule itself. Nature of the series: gel filtration on G100 Sephadex; self-association (homodimer).

B1: FlaA1 from Helicobacter pylori carrying a N-terminal hexahistidine tag (enzyme)
chain: MHHHHHHGSMSMPNHQNMLDNQTILITGGTGSFGKCFVRKVLDTTNAKKIIVYSRDELKQSEMAMEFNDPRMRFFIGDVRDLERLNYALEGVDICIHAAALKHVPIAEYNPLECIKTNIMGASNVINACLKNAISQVIALSTDKAANPINLYGATKLCSDKLFVSANNFKGSSQTQFSVVRYGNVVGSRGSVVPFFKKLVQNKASEIPITDIRMTRFWITLDEGVSFVLKSLKRMHGGEIFVPKIPSMKMTDLAKALAPNTPTKIIGIRPGEKLHEVMIPKDESHLALEFEDFFIIQPTISFQTPKDYTLTKLHEKGQKVAPDFEYSSHNNNQWLEPDDLLKLL
notes: Full-length FlaA1 with an N-terminal hexahistidine tag, overexpressed in E. coli (pET system) and purified; also called HP0840; His-FlaA1
With B1, the binding result is “binds”.
